Source: the supplement of paper PMC12764529
± gives the half width of the 95% confidence interval.

Test: folding stability dG unfold from chymotrypsin proteolysis; higher = more stable
Description: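 Folding stability of de novo designed mini-proteins (<80 aa, no Cys; designed by TrROS, TrMRF, ProteinMPNN and the joint model) was measured by cDNA display proteolysis with trypsin and chymotrypsin. Each protease was used at 11 concentrations in a threefold dilution series plus a no-protease condition. K50 was inferred by Bayesian fitting of sequencing counts, and dG unfold was derived against a sequence-predicted unfolded-state K50 (Tsuboyama et al. method). Sequences shown include variable-length N-terminal GS-type padding (SAGGSAGG...) inside a display construct carrying a PA tag. Rows were kept only if the AF2 dimer inter-PAE was >15, to exclude likely homo-oligomers.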

With “SAGGSADFQVEVERDPNNGYYEIEVRYPNGMPVEIEYNPKKNKIEVKVTPGFPPSMAENAAEELLDSAGGSA [r15_511_TrROS]” as the sequence, how does the “folding stability dG unfold” value read?
Its value is 0.136 ± 0.058 kcal/mol.

Which “folding stability dG unfold” value does the source give for “SAGGRVKVEIYNPDSGRPMEIEINPGNGTLEIRNPNNGEPVHEFPIPDIKEIEIPFSPNGILIKIEVDSAGG [r13_720_TrROS]” here?
Its value is 0.281 ± 0.043 kcal/mol.

For “SAGGSSSTPRIKTSVSSSTTVTPLPGPTTLVTTTTTTTTTNPANGQQLSTTPTTSTTVVTPGTGAALSAGGS [r8_204_JUSTAS]”, which “folding stability dG unfold” value is on record?
The value was 0.797 ± 0.053 kcal/mol.

For “SAGGPEAKIEIYKLPDGYYFISVETPDNGKPMSIPIPPGEEKKIKIEPGAPIRDISIYPVKPGDPEAFSAGG [r13_122_TrROS]”, which “folding stability dG unfold” value is on record?
Its value is 0.202 ± 0.33 kcal/mol.

For “SVITANDIKEMRKLGIEPIEHDPDNRYRFKFPRMNQPIEVEVKPVPPPPPIEIPDNMDSPEEADKWQDTFSA [r9_649_TrROS]”, which “folding stability dG unfold” value is on record?
The value was 0.565 ± 0.16 kcal/mol.

With “SAGGSAGGSMTITVETTSKDPAVAEKELTEKVKKEYPPSVKVEIDPVSSPDGVARVRATIIRESAGGSAGGS [r20_122_JUSTAS]” as the sequence, how does the “folding stability dG unfold” value read?
The value was 0.529 ± 0.09 kcal/mol.

Which “folding stability dG unfold” value does the source give for “SAGGSAGGSAGMYDVGFIEAPKDTAYIKFPEINYIAEIKLDPKNGGFSLDEIKLYPLNTKSAGGSAGGSAGG [r11_352_TrMRF]” here?
Its value is 0.521 ± 0.067 kcal/mol.

With “SPKWKPIAEIPFKNGDPDEFIDKLKDAFPPDPPVQITFNGPDGPPMRIWIDPDEGRIDDIYPGGQIRIIPSA [r9_853_TrROS]” as the sequence, how does the “folding stability dG unfold” value read?
Its value is -0.986 ± 0.39 kcal/mol.

With “SAGGSAGGSAGELPEGAKVEVREETFTRPDGYLVKRTEVRLEDTDELVTSEEVIEPGEEPSAGGSAGGSAGG [r11_338_TrROS_Hall]” as the sequence, how does the “folding stability dG unfold” value read?
The value was 0.899 ± 0.086 kcal/mol.

For “SAGGSAGGSMTTLRTRLKGDGTVEIEVYEPGRIRTITLPPSEVDKIPDVEDLPRYELEGDAPESAGGSAGGS [r12_343_JUSTAS]”, which “folding stability dG unfold” value is on record?
The value was 0.147 ± 0.21 kcal/mol.

For “SAGGSAGGNNPPKTREIWIPPDDPDDLKDLKIDGPPGDTHHFRNPGGPYRITVTDGDPKVEPWGSAGGSAGG [r6_551_TrROS]”, which “folding stability dG unfold” value is on record?
The value was -0.301 ± 0.49 kcal/mol.

With “SAGGSAGGSAGSPNYIPKEVTIKVEGEGKPVEVKIKLTTSPEGKPASEEEILKKAEELLKSAGGSAGGSAGG [r17_373_JUSTAS]” as the sequence, how does the “folding stability dG unfold” value read?
The value was 0.372 ± 0.058 kcal/mol.

For “SAGGMIEKVEIREVDPETGEVTVTFHVPSEDLEKLGPIPFPGVKEVRFFPGEKTIEARMPLEDALKHSAGGS [r16_614_TrMRF]”, which “folding stability dG unfold” value is on record?
The value was 0.538 ± 0.098 kcal/mol.

Which “folding stability dG unfold” value does the source give for “MKITVTITSLGDKYTMTAEIELPDGTVETITKEFDSPEEAKKYIEKLVKELPPGLVEIEEIKFNPPDGTADS [r1_169_JUSTAS]” here?
The value was 4.94 ± 0.6 kcal/mol.

With “SAGGSAGGSGYPGLPMPVLRVRFAGDPEPVFIPVPADRPDVARAAAEELRALRPDVPVELELGSAGGSAGGS [r12_601_TrMRF]” as the sequence, how does the “folding stability dG unfold” value read?
Its value is 0.823 ± 0.045 kcal/mol.

With “SAGGSAGGSAGGMLSPEVGLPEVPVTLTDPTNDKVYTITVPPDTNPAEVAAALGVALLLSAGGSAGGSAGGS [r10_202_JUSTAS]” as the sequence, how does the “folding stability dG unfold” value read?
Its value is 0.699 ± 0.23 kcal/mol.

With “SAGGSAGGSAGGMTITKSPEPDLVTVTLPDASGTTVATLTFSPEVVESDPALVAAAAAATSAGGSAGGSAGG [r17_496_JUSTAS]” as the sequence, how does the “folding stability dG unfold” value read?
Its value is 0.516 ± 0.095 kcal/mol.

Which “folding stability dG unfold” value does the source give for “MTEKEIKEKAEEIAKKIAEEKGTEIKSAKIGGYVNVPVKVKEKLDENGKPVFEFEGKKVKVKVEVELKKKKS [r1_91_TrMRF]” here?
Its value is 0.567 ± 0.33 kcal/mol.

With “SAGGSAGGSAIKIETQGTPEEAREFAKDFANKNPELLENMKIDVITWRPPEPKYTPNGKPKSAGGSAGGSAG [r3_89_TrROS]” as the sequence, how does the “folding stability dG unfold” value read?
The value was -0.104 ± 0.2 kcal/mol.

With “SAGGSAGGLTITLPNGATVTINEDDLEVVEVTFEPAPPAPPVRTETRTVTETRTVTTLAPGEEASAGGSAGG [r6_585_TrROS_Hall]” as the sequence, how does the “folding stability dG unfold” value read?
Its value is 0.938 ± 0.035 kcal/mol.

With “SAGGSAGGSSTLSVELPDFTGSAADVLAALRAAFPDPALVLDGVEVRPLGADRPGWRVELAVASAGGSAGGS [r12_348_JUSTAS]” as the sequence, how does the “folding stability dG unfold” value read?
Its value is 0.958 ± 0.091 kcal/mol.

With “SAGGIKELQEALREGNLPEIIKELKKRGYENVKIQPNPDEGTIEIEIERKDPEDGKPEEEELTIPLEPSAGG [r13_359_TrROS]” as the sequence, how does the “folding stability dG unfold” value read?
The value was 0.184 ± 0.084 kcal/mol.

For “SAGGSAGGSAGSTTTRTVELPPGTSLEEVRARLEAEGYTGVVITEVERPPGPRLRVTVVGSAGGSAGGSAGG [r11_800_JUSTAS]”, which “folding stability dG unfold” value is on record?
Its value is 0.293 ± 0.06 kcal/mol.

For “SAGPPEPREIEIPVEGSWSDLRNQVKNVAEEAQPKGEPVQIKIEWGGRPRKYTLNDIDDVPPWMKVEIYSAG [r5_626_TrROS]”, which “folding stability dG unfold” value is on record?
Its value is -0.0343 ± 0.48 kcal/mol.

Which “folding stability dG unfold” value does the source give for “SAGGSAGGSAGGGPEVEVETETLPTADGRPVRLVRARVPTREYLFLVSPDGEILRRIPVSAGGSAGGSAGGS [r10_97_TrMRF]” here?
Its value is 0.331 ± 0.16 kcal/mol.

Which “folding stability dG unfold” value does the source give for “SAGGSAGGSTITGRFESPEGINELANEFPGVEIFEDPENNWIYVEIEIKPPPPPPPEDQKNNKSAGGSAGGS [r20_191_TrROS]” here?
The value was 0.916 ± 0.078 kcal/mol.

Which “folding stability dG unfold” value does the source give for “SAGGSAGGSAGGSSRVLKGKDTTVVLYPDSVTFYPGSTGTPVVKSISDPEVVEEIKKLLSAGGSAGGSAGGS [r4_353_JUSTAS]” here?
Its value is -0.192 ± 0.33 kcal/mol.

For “SAGGSAGGSAGKEPILAIPNPEFPDVVIIKTKDGVRAVPVEELKELDIDAVMSLEEALASSAGGSAGGSAGG [r17_88_TrMRF]”, which “folding stability dG unfold” value is on record?
Its value is 0.731 ± 0.067 kcal/mol.

Which “folding stability dG unfold” value does the source give for “SAGGRIKIDIDPHPNEPGQPVMIKIKHPNGEREIPIPPNQSPEELKEAADDLAEENGFPIDDVEIHPSAGGS [r16_753_TrROS]” here?
The value was 0.661 ± 0.059 kcal/mol.

With “SAGGSAGGSAGGSMSTLSLTIPVGGEPVSVTVQQLYDPTKNTTTTLLPPEAAAVIARAAGSAGGSAGGSAGG [r11_91_JUSTAS]” as the sequence, how does the “folding stability dG unfold” value read?
The value was -0.449 ± 0.19 kcal/mol.

Which “folding stability dG unfold” value does the source give for “SAGGSAGGSAGGGMDEEETVELDLTTKGTDPAEVEAARAARAEELGLPLADVRVRVSAESAGGSAGGSAGGS [r10_401_JUSTAS]” here?
Its value is -0.252 ± 0.036 kcal/mol.

Which “folding stability dG unfold” value does the source give for “SAGGSAGGSAGEWIPADYIRDFARNLGMPGKIDVERKEDGWFTIEIRNNGGPRKIQIPLDSAGGSAGGSAGG [r11_410_TrROS]” here?
Its value is 0.00957 ± 0.25 kcal/mol.

Which “folding stability dG unfold” value does the source give for “SAGMIVVPLPLSVEEAPAFARELLEAAEAAGLEVTIRVPDEAVAEAVREAAPPDAPVRIEPLEPGEPVESAG [r5_911_JUSTAS]” here?
The value was 0.58 ± 0.054 kcal/mol.

With “SAGGSAGGSAGMRITVEPDRVVVHPPGGEEIVMPAPEWGEEEVLALAEEHPDVEVEPVPPSAGGSAGGSAGG [r17_545_JUSTAS]” as the sequence, how does the “folding stability dG unfold” value read?
The value was -1.01 ± 0.37 kcal/mol.

For “SAGVEVTSTSVDYTLDSSSPSPLRSSASPVRSAPPVEERPVELVDPSGERRLVTLKEIDPEKGGRVLSGSAG [r5_735_JUSTAS]”, which “folding stability dG unfold” value is on record?
Its value is 0.229 ± 0.26 kcal/mol.

With “SAGGSAGGSAGMIQIDQDPNNGNYKVKIRNPDGKPREFNVDSPDELEDAADKNGFPAEPISAGGSAGGSAGG [r11_1049_TrROS]” as the sequence, how does the “folding stability dG unfold” value read?
The value was -0.0704 ± 0.14 kcal/mol.

With “SAGGSAGGSAGGTVVPEKEARELARKVAEKGEPIEVEIGDPGPKKPRTVLITPEDLEERSAGGSAGGSAGGS [r10_779_JUSTAS]” as the sequence, how does the “folding stability dG unfold” value read?
Its value is -0.219 ± 0.18 kcal/mol.

Which “folding stability dG unfold” value does the source give for “SAGGSAGGSMKLGGKPIKRVESEPLPGPSRLFYIELEDKKIPVVLEGDKLLVSPELFEWEKEGSAGGSAGGS [r20_92_TrMRF]” here?
Its value is 0.396 ± 0.22 kcal/mol.

Which “folding stability dG unfold” value does the source give for “SAGGMKKIKVPDGSEIGSVNPKGGIDYVKVKLPGSGVLVEKAVPKGGKLVIPKNIPVELVEIKDYPLSAGGS [r16_123_TrMRF]” here?
The value was -0.0202 ± 0.12 kcal/mol.

Which “folding stability dG unfold” value does the source give for “SAGGSAGGSAGGMSAEEVREIVEELGFDDPTEVVVLDLPDGRRVLVTNPPDGLRLEVLDSAGGSAGGSAGGS [r10_604_TrMRF]” here?
The value was 0.967 ± 0.053 kcal/mol.

Which “folding stability dG unfold” value does the source give for “SAGGSAGGSAGGSMKKVEVEIPYSFEGPPTFNPEEIEKKLKEEGINAKIKTKYIPKSKEKSAGGSAGGSAGG [r7_355_JUSTAS]” here?
The value was -0.145 ± 0.39 kcal/mol.

With “SAGGSAGGSAGGDPDGKPPPKIEFEMETVPIPNPDGQALEIEIFRIKGNGMLFIMIEPYSAGGSAGGSAGGS [r10_1137_TrROS]” as the sequence, how does the “folding stability dG unfold” value read?
Its value is 4.21 ± 0.29 kcal/mol.

For “SAGTTTITVPASEASEEEVQALIDEIEAANPHLKVKEVKETVVPLPTPKPVRLRTIIINAELPLPPELLSAG [r5_835_JUSTAS]”, which “folding stability dG unfold” value is on record?
The value was 0.447 ± 0.18 kcal/mol.

With “SAGGMESSVLSVSTITRSAPPGSPLASTTATVTVTKTDGRTIVTVPATGVVYTVNPDGTVTADPVDPPSAGG [r13_721_JUSTAS]” as the sequence, how does the “folding stability dG unfold” value read?
Its value is -0.515 ± 0.4 kcal/mol.

For “SAGGSAGEAEELAEAREAALRAALPPGTVVEVEVEVRVEREGDREEERVEVRVTVREPGTDRLLLESAGGSA [r15_915_JUSTAS]”, which “folding stability dG unfold” value is on record?
The value was 0.13 ± 0.18 kcal/mol.

With “SAGGIRLEIPPNWTPEEAKEQAEELANFFAKKGPMEVEDIEYKRDEKDGNPMIVGEIRDPKNGKEWTISAGG [r13_669_TrROS]” as the sequence, how does the “folding stability dG unfold” value read?
Its value is -0.127 ± 0.3 kcal/mol.

Which “folding stability dG unfold” value does the source give for “SAGGSAGGSSGLTLLEETEISPGPPVPAIPATLPVKVDGKTVPLPITLTPEELAALRAELLRRSAGGSAGGS [r20_148_JUSTAS]” here?
The value was 0.893 ± 0.088 kcal/mol.
